Reference: FireProtDB (doi:10.1021/bi990893b)

B1: Cytochrome b5, P00171 (parent)
chain: MAEESSKAVKYYTLEEIQKHNNSKSTWLILHYKVYDLTKFLEEHPGGEEVLREQAGGDATENFEDVGHSTDARELSKTFIIGELHPDDRSKITKPSESIITTIDSNPSWWTNWLIPAISALFVALIYHLYTSEN

Variants of: B1
Details: Bos taurus, pH 7, Thermal, Absorbance, Sodium phosphate 100 mM, structure 1CYO, whole UniProt chain shown; for ddG of mutation (higher = less stable): 67.2 °C

Variant | ddG of mutation (higher = less stable) [kcal/mol] | Tm [°C] | change of melting temperature, mutant - wild type (higher = more stable) [°C] | unfolding enthalpy (van 't Hoff) [kcal/mol]
MAEESSKAVKYYTLEEIQKHNNSKSTWLILHYKVYDLTKFLEEHPGGEEVLREQAGGDATENFEDEGHSTDARELSKTFIIGELHPDDRSKITKPSESIITTIDSNPSWWTNWLIPAISALFVALIYHLYTSEN [V66E] | 1.1 | 63.2 | -4 | 93.2
MAEESSKAVKYYTLEEIQKHNNSKSTWLILHYKVYDLTKFLEEHPGGEEVLREQAGGDATENFEDHGHSTDARELSKTFIIGELHPDDRSKITKPSESIITTIDSNPSWWTNWLIPAISALFVALIYHLYTSEN [V66H] | 1.63 | 61.3 | -5.9 | 88.2
MAEESSKAVKYYTLEEIQKHNNSKSTWLILHYKVYDLTKFLEEHPGGEEVLREQAGGDATENFEDYGHSTDARELSKTFIIGELHPDDRSKITKPSESIITTIDSNPSWWTNWLIPAISALFVALIYHLYTSEN [V66Y] | 1.29 | 62.5 | -4.7 | 91.3
MAEESSKAVKYYTLEEIQKHNNSKSTWLILHYKVYDLTKFLEEHPGGEEVLREQAGGDATENFEDKGHSTDARELSKTFIIGELHPDDRSKITKPSESIITTIDSNPSWWTNWLIPAISALFVALIYHLYTSEN [V66K] | 2.34 | 58.5 | -8.7 | 87
